B1: CPEB3 Ribozyme (parent)
chain: GGGGGCCACAGCAGAAGCGUUCACGUCGCGGCCCCUGUCAGAUUCUGGUGAAUCUGCGAAUUCUGCUGU

Variants of B1 are the subject of the series. The experiment in a line: self-cleavage, relative activity (ratio to wild type); higher = more cleavage; co-transcriptional.
In the case of A13U C35A, the self-cleavage was determined as 0.197.

As to A13U C35U, the self-cleavage was 0.826. To A13G A15U belongs 0.547. To C12A G30C belongs 0.194. Under A13G U36G stands 0.227; under A13G U20A, 0.0779; under A13G U20C, 0.199. Turning to A13G U49G, the self-cleavage was found to be 0.989.

With A13G U49C, the self-cleavage stood at 1.01. To C12A U62C belongs 0.338; to C12G G25C, 0.166. On to C12A G37C, for which the self-cleavage stood at 0.149. Under C12A G37U stands 0.18; under C12A G37A, 0.187. With A13U C45U, the self-cleavage was determined as 0.904. Under A13G C45G stands 0.847. To C12A U53C belongs 0.232; to C12G A59U, 0.4. As for C12U U67C, the self-cleavage was 0.978.

As to A13G C18U, the self-cleavage worked out at 0.382. Under C12U U53C stands 0.785; under A13U C32U, 0.862; under A13C C29G, 0.141. Turning to C12G C27G, the self-cleavage was 0.1.

For C12A C66U, the self-cleavage turned out to be 0.723. To A13C G17U belongs 0.125; to A13C G47A, 0.922; to A13C A52G, 0.823. Under C12G C63U stands 0.53. Under A13G C24G stands 0.368. Regarding C12G A23C, the self-cleavage amounted to 0.628. As for C12G A23U, the self-cleavage came out at 0.55. As for C12G A23G, the self-cleavage was found to be 0.721. To C12G U20C belongs 0.119; to C12U A60U, 0.374; to C12U G14U, 0.345. Regarding C12U G14C, the self-cleavage is 0.146. In the case of A13C A40G, the self-cleavage was determined as 0.738.

For C12U U21C, the self-cleavage was 0.9. For the variant A13U C34U, the self-cleavage was 0.917. In the case of A13U C18A, the self-cleavage is 0.132. To C12G G30U belongs 0.26.

For C12G G30A, the self-cleavage was found to be 0.43. Under A13U A40C stands 0.163; under A13U A40U, 0.265. To C12G G48C belongs 0.949; to C12A G25A, 0.155; to C12A G25U, 0.1. To C12U C66U belongs 0.798. Turning to C12U C66G, the self-cleavage worked out at 0.556.

A13U U36C: the self-cleavage was 0.647.

With A13C C33U, the self-cleavage came out at 0.774. To A13C C33G belongs 0.231; to C12G U36C, 0.669. To C12U A40U belongs 0.643; to A13C U55G, 0.322. For the variant A13C U55A, the self-cleavage worked out at 0.315.

In the case of C12A G14A, the self-cleavage was found to be 0.148. C12A G14U: the self-cleavage was 0.13. Consider A13U C54G, for which the self-cleavage worked out at 0.419. For the variant C12U A23C, the self-cleavage worked out at 0.93. For the variant A13U G47C, the self-cleavage was 0.877.

For A13U U53C, the self-cleavage was determined as 0.357.

As for A13U G41U, the self-cleavage is 0.333.

Take C12G C33U: the self-cleavage came out at 0.405. A13C C24G: the self-cleavage came out at 0.0828.

Consider C12A C45U, for which the self-cleavage is 0.72. Consider C12U G19U, for which the self-cleavage was 0.339. Regarding A13G A52U, the self-cleavage came out at 0.989.

Consider C12G C35G, for which the self-cleavage was found to be 0.369. Under C12G C35A stands 0.326; under C12G G14C, 0.0732; under C12G G14U, 0.118. Consider C12G G14A, for which the self-cleavage is 0.127. To C12A U49C belongs 0.73. Under A13U G14C stands 0.351; under A13U G58C, 0.788; under A13U G58U, 0.911. As to A13C, the self-cleavage was 0.913. Take A13U: the self-cleavage is 0.888. Under A13G stands 0.97; under C12G, 0.92. Take C12U: the self-cleavage was 0.996. Under C12G U43G stands 0.361; under C12U U55A, 0.756. Under A13G G68C stands 0.924. Under A13G G68U stands 0.95; under C12G U61C, 0.282; under A13G U43A, 0.617. For A13U U20A, the self-cleavage was 0.0602. Take A13C C34U: the self-cleavage stood at 0.929. Consider A13C C34A, for which the self-cleavage was 0.511. To C12U U69A belongs 1.02; to C12U U69G, 1.05.

As to A13U C22U, the self-cleavage came to 0.171. Under A13U C22A stands 0.161; under A13U C22G, 0.148.

As to C12U U49A, the self-cleavage came to 1.02.

As to C12G A60U, the self-cleavage turned out to be 0.367. With A13G U69A, the self-cleavage was found to be 1.

On to A13C C27G, for which the self-cleavage worked out at 0.048.

As for C12G G68A, the self-cleavage was determined as 0.972. Turning to C12G G68C, the self-cleavage came out at 0.832.

On to C12A C33U, for which the self-cleavage worked out at 0.671.

Take C12U C63A: the self-cleavage amounted to 0.56. Consider C12U C63U, for which the self-cleavage was found to be 0.898. To C12A G48U belongs 0.8; to A13G A40C, 0.306. Under C12U C32U stands 0.999; under A13C U61A, 0.459. For the variant A13C U61G, the self-cleavage is 0.406. Consider A13C U43C, for which the self-cleavage was 0.685. With A13G G17C, the self-cleavage came to 0.052. As to A13C G30A, the self-cleavage is 0.497. Turning to A13U U55C, the self-cleavage came out at 0.403.

For the variant A13C G19A, the self-cleavage was 0.109. Under A13C G19C stands 0.107; under C12G A51U, 0.854. As for A13G C29U, the self-cleavage turned out to be 0.133. Under A13U C63U stands 0.648; under C12G G58C, 0.834; under C12U C27G, 0.174. Under A13G U26A stands 0.767; under A13C C32G, 0.192; under A13C C32U, 0.89. As for A13G A23U, the self-cleavage amounted to 0.997. To A13G A23G belongs 0.804; to A13G C57A, 0.448; to C12U A51C, 0.977. As to C12U A52U, the self-cleavage was determined as 0.952. To A13C G50A belongs 0.913; to A13U A42C, 0.586; to A13U C33U, 0.894. On to C12G A13G, for which the self-cleavage stood at 0.48. With A13U G31A, the self-cleavage was found to be 0.623.

On to C12A U36G, for which the self-cleavage was determined as 0.154. To C12A U36A belongs 0.194; to A13G C54U, 0.937; to C12U C45G, 0.98. Regarding C12U C45U, the self-cleavage is 1.01.

For the variant A13G G31C, the self-cleavage is 0.241.

C12U C39A: the self-cleavage was determined as 0.756. In the case of A13C A42C, the self-cleavage came out at 0.602. With C12U U44A, the self-cleavage came out at 0.954. Under C12U U44G stands 0.866. A13C G41A: the self-cleavage stood at 0.27. Turning to C12G C22A, the self-cleavage turned out to be 0.164. To C12G C22G belongs 0.208; to C12A U21G, 0.0774; to A13G G47C, 0.997.

On to A13C A23C, for which the self-cleavage turned out to be 0.83. With A13U G37A, the self-cleavage was determined as 0.184. Under C12G C29G stands 0.152.

On to A13G G19C, for which the self-cleavage came to 0.13. Under A13G G28A stands 0.139; under A13G C27G, 0.137; under A13G C27A, 0.425. Under C12U U61C stands 0.579. Take C12U U61G: the self-cleavage came to 0.644. To A13G C35U belongs 0.952; to A13G C35A, 0.167. In the case of C12A U69G, the self-cleavage is 0.925. In the case of C12A U46A, the self-cleavage worked out at 0.804.

As to C12U U62C, the self-cleavage amounted to 0.511. As to A13G G48C, the self-cleavage was 0.971.

In the case of C12U G30U, the self-cleavage was determined as 0.368. To C12U G30C belongs 0.67.

Values taken from the RNAGym collection of RNA variant scans (doi:10.7554/elife.80360).
